Here are results for 71 sequences from the supplement of paper PMC10567573.

The data set can be described thus: protein stability index of a GFP-peptide fusion (GPS, HEK-293T) (PSI 1-6); higher = more stable.
The mark [1] stands for this setting: treatment: DMSO, c terminus: a fixed tail appended.
[2] abbreviates: treatment: MLN4924 1 uM, 8 h, c terminus: a fixed tail appended.

± gives the standard deviation.
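Further: 24-mer peptide tiles fused after GFP, lentivirally expressed, FACS-sorted into six equal bins by GFP/DsRed ratio, decoded by Illumina sequencing, PSI is the read-weighted mean bin number.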

In the case of VAALREEQKVLSRLVESLSTQIRA [RASAL3], the protein stability index under setting [1] was determined as 2.34 ± 0.35 and the protein stability index under setting [2] amounted to 2.38 ± 0.11.

The sequence VAGMPTAYDLSSVIASGSSVGHNN [CARM1] gave a protein stability index under setting [1] of 3.86 ± 0.19 and a protein stability index under setting [2] of 3.86 ± 0.23.

Sequence VAREYYSEADASHCIQQILESVNH [CAMK2D] had a protein stability index under setting [1] of 3.46 ± 0.17 and a protein stability index under setting [2] of 3.37 ± 0.3.

In turn, VASNSELVQSSRSEVTELRRVLQG [KRT16] displayed a protein stability index under setting [1] of 4.33 ± 0.36 and a protein stability index under setting [2] of 4.47 ± 0.27.

In the case of VAYRSLGRFEQLGKTAASWCLHVN [FSD1], the protein stability index runs as follows: under setting [1], 2.6 ± 0.6; under setting [2], 2.2 ± 0.36.

Sequence VCSSNKPAIVEAGGMQALGLHLTD [CTNNB1] yielded a protein stability index under setting [1] of 4.04 ± 0.087 and a protein stability index under setting [2] of 3.89 ± 0.16.

Take VDDAYVRRMAAEATEWQKAGAPPP [SRPK2]: the protein stability index by setting is: under setting [1], 4.52 ± 0.26; under setting [2], 4.63 ± 0.16.

As to VDEVSVSLRLWDTFGDHHKDRRFA [RHOBTB1], the protein stability index reads like this: under setting [1], 3.01 ± 0.1; under setting [2], 3.08 ± 0.2.

For VEINDLDPEVFKEMMRFIYTGRAP [SPOPL], the protein stability index reads like this: under setting [1], 2.36 ± 0.33; under setting [2], 2.05 ± 0.28.

For the sequence VELGKQKKKYMPYNHQHKYFFLIG [FADS1], the protein stability index reads like this: under setting [1], 2.29 ± 0.94; under setting [2], 3.12 ± 0.48.

As to VELLLARKISVNAKDEDQWTALHF [RIPK4], the protein stability index reads like this: under setting [1], 2.91 ± 0.82; under setting [2], 1.83 ± 0.4.

Regarding VELLPPAPKGKGRKPAAGAQSAGT [BRD3], the protein stability index is 4.58 ± 0.3 under setting [1] and 4.87 ± 0.42 under setting [2].

Consider VELPMNSSNGNDNGNGKNGGLEHV [BNIP3L], for which the protein stability index worked out at 5.25 ± 0.17 under setting [1] and 5.23 ± 0.22 under setting [2].

For the sequence VEPETRAVIRWMHSFNFVLSANLH [CPN1], the protein stability index reads like this: under setting [1], 3.1 ± 0.12; under setting [2], 3.19 ± 0.27.

On to VEVGDKTHWAVGVCRDSVSRKGEL [TRIM39], for which the protein stability index is, setting by setting: under setting [1], 3.06 ± 0.15; under setting [2], 3.2 ± 0.17.

Regarding VHRGDGANPFQAYLDVDLTLTREQ [RTN2], the protein stability index runs as follows: under setting [1], 3.88 ± 0.088; under setting [2], 3.82 ± 0.25.

Regarding VIGALLRFNQAILVSRHDPASRRR [LPCAT4], the protein stability index worked out at 2.28 ± 0.22 under setting [1] and 2.36 ± 0.19 under setting [2].

VKMALDIEIATYRKLLEGEESRIS [PRPH] showed a protein stability index under setting [1] of 2.61 ± 0.13 and a protein stability index under setting [2] of 2.7 ± 0.39.

Turning to VKNVVSGGFPIIRDQIFRYVHDPE [FBXO3], the protein stability index amounted to 2.53 ± 0.31 under setting [1] and 2.63 ± 0.38 under setting [2].

Consider VKVPTTLAEYCVKTKAPAPDEGSD [CDC34], for which the protein stability index reads like this: under setting [1], 5.07 ± 0.43; under setting [2], 4.97 ± 0.12.

Consider VLDILTEQREWVLKSSILIAMAVY [INTS3], for which the protein stability index worked out at 2.57 ± 0.33 under setting [1] and 2.48 ± 0.61 under setting [2].

Regarding VLKAHNEYRQKHGVPPLKLCKNLN [GLIPR2], the protein stability index reads like this: under setting [1], 2.92 ± 0.17; under setting [2], 3.33 ± 0.18.

Turning to VLQSVRELSRSRKLYGQRERVWAL [FCHSD1], the protein stability index was 2.06 ± 0.24 under setting [1] and 2.37 ± 0.25 under setting [2].

As for VMRMLGQTPTKEELDAIIEEVDED [TNNC2], the protein stability index amounted to 5.41 ± 0.28 under setting [1] and 5.34 ± 0.27 under setting [2].

Turning to VNMYVSIVFFGLISFDRYYKIVKP [P2RY14], the protein stability index reads like this: under setting [1], 3.66 ± 0.41; under setting [2], 3.06 ± 0.28.

In turn, VPLWGQLLLFLVFVIVLFFIYHFM [EMD] yielded a protein stability index under setting [1] of 2.41 ± 0.17 and a protein stability index under setting [2] of 2.17 ± 0.47.

Regarding VQFSHHVFLNLHTLKFYCLPDNYE [USP39], the protein stability index by setting is: under setting [1], 2.89 ± 0.61; under setting [2], 3.04 ± 0.74.

As to VQKDKYPEEFSLLKLQTKDGHRPE [SPATS1], the protein stability index was determined as 4.64 ± 0.23 under setting [1] and 5 ± 0.33 under setting [2].

As for VQLAQQQAALQKQQEVVVAGSSLP [ACBD3], the protein stability index under setting [1] was 4.12 ± 0.11 and the protein stability index under setting [2] worked out at 4.49 ± 0.26.

As to VQWKEPEEPNGQIQGYRVYYTMDP [PTPRD], the protein stability index was 3.3 ± 0.16 under setting [1] and 3.17 ± 0.23 under setting [2].

For VRELRIAFREFDRDRDGRITVAEL [CABP4], the protein stability index by setting is: under setting [1], 2.7 ± 0.49; under setting [2], 2.98 ± 0.17.

As for VRKANRIKECLSKGTFSDVTFKLD [RHOBTB1], the protein stability index was 3.33 ± 0.21 under setting [1] and 3.43 ± 0.19 under setting [2].

Take VSEFLKVAEQVGIDKGDIPDLTQA [SNAP91]: the protein stability index runs as follows: under setting [1], 4.18 ± 0.45; under setting [2], 4.13 ± 0.44.

For the sequence VSGDTSKLMKILQPQDVDLALDSG [RIPK4], the protein stability index is 4.57 ± 0.16 under setting [1] and 4.68 ± 0.32 under setting [2].

In the case of VSNFLKERTGFSIRPVAGYLSPRD [TPH1], the protein stability index was 2.71 ± 0.33 under setting [1] and 2.95 ± 0.31 under setting [2].

For VSNMSGPSGEEEAKVGPGLPDGCQ [CBY2], the protein stability index runs as follows: under setting [1], 5.46 ± 0.12; under setting [2], 5.16 ± 0.16.

Regarding VTKSPEKRSSLPRPSSILPPRRGV [MAP2], the protein stability index is, setting by setting: under setting [1], 4.58 ± 0.16; under setting [2], 4.72 ± 0.19.

As for VTLRRGLRSRASRCRPRSLIDYKS [FAM189A2], the protein stability index by setting is: under setting [1], 2.12 ± 0.33; under setting [2], 2.23 ± 0.39.

Consider VTNPHSSQWKDPALSQLICFCRES [GADD45A], for which the protein stability index is, setting by setting: under setting [1], 2.5 ± 0.24; under setting [2], 2.67 ± 0.33.

For the sequence VVKLLVSHGANVNHTTVTNSTPLR [FEM1B], the protein stability index under setting [1] worked out at 2.25 ± 0.26 and the protein stability index under setting [2] amounted to 2.29 ± 0.27.

Consider VVPGDHLLEPEVADGGGAPPQGGC [KCNA3], for which the protein stability index was found to be 5.37 ± 0.14 under setting [1] and 5.29 ± 0.12 under setting [2].

Turning to VWFGGREHVLMFAKLALYPCASLL [TMEM175], the protein stability index is, setting by setting: under setting [1], 2.77 ± 0.26; under setting [2], 3.18 ± 0.27.

VWSCEGCKAFFKRSIQGHNDYICP [ESR2]: the protein stability index reads like this: under setting [1], 2.32 ± 0.16; under setting [2], 2.15 ± 0.11.

Turning to VWVLMDEDVRIFFYQSPYDSEQVP [NCF4], the protein stability index under setting [1] came to 2.3 ± 0.71 and the protein stability index under setting [2] was 2.33 ± 0.64.

VYTNLSSYSPASASSGGAGAAVGT [JUNB]: the protein stability index came to 3.26 ± 0.29 under setting [1] and 3.49 ± 0.27 under setting [2].

With WEISDDYPSLQAMGWFNNEVGSMK [CRYBA1], the protein stability index under setting [1] was determined as 3.19 ± 0.24 and the protein stability index under setting [2] turned out to be 3.42 ± 0.38.

As for WEQKVLVIVMTTRFEEGGRRKCGQ [PTPN9], the protein stability index runs as follows: under setting [1], 2.28 ± 0.2; under setting [2], 2.28 ± 0.34.

As to WETIRSFKDEWTQLDMFYRNWALK [AASDHPPT], the protein stability index was 2.14 ± 0.13 under setting [1] and 2.08 ± 0.32 under setting [2].

WKNTKKMGVGKASASDGSSFVVAR [GLIPR2]: the protein stability index reads like this: under setting [1], 3.64 ± 0.27; under setting [2], 3.71 ± 0.3.

As to WKYILLGLADVEANYVIVRAYQYT [SLC35F2], the protein stability index under setting [1] stood at 2.77 ± 0.66 and the protein stability index under setting [2] was determined as 2.86 ± 0.26.

For the sequence WLDPGHTAVAQAPPAVASSSLFDL [SERTAD1], the protein stability index runs as follows: under setting [1], 3.33 ± 0.27; under setting [2], 3.38 ± 0.097.

As to WRFVLQRLVFLAAFVVYLETETLV [TSN], the protein stability index reads like this: under setting [1], 2.68 ± 0.54; under setting [2], 3.66 ± 0.17.

For WSKTQVLDWISYQVEKNKYDASAI [ELF3], the protein stability index was determined as 2.59 ± 0.2 under setting [1] and 2.48 ± 0.28 under setting [2].

In the case of WYFWGETFQNSVFVATFLRYAVVL [SCD], the protein stability index was determined as 3.37 ± 0.33 under setting [1] and 3.36 ± 0.85 under setting [2].

As to YATLDLNAVKYVSNIKFCSFHPLQ [PDS5B], the protein stability index reads like this: under setting [1], 2.31 ± 0.68; under setting [2], 2.18 ± 0.35.

Turning to YAVEASTMAQHAEVLVKSNNLTDR [CARM1], the protein stability index was 4.16 ± 0.14 under setting [1] and 4.64 ± 0.34 under setting [2].

As for YGYNNVVTIPAGATHILVRQQGNP [ADAMTS4], the protein stability index stood at 2.53 ± 0.13 under setting [1] and 2.72 ± 0.34 under setting [2].

YHIYVALEEEIERNKESPVFAPVY [HMOX1] returned a protein stability index under setting [1] of 2.32 ± 0.28 and a protein stability index under setting [2] of 3.03 ± 0.51.

Take YIEMQTDPANCDYVIVSGAQRKEE [YJU2B]: the protein stability index is, setting by setting: under setting [1], 4.2 ± 0.2; under setting [2], 4.57 ± 0.36.

The sequence YIIIVPLKKSRGKFIKPWESPDEM [PTPRD] showed a protein stability index under setting [1] of 2.5 ± 0.45 and a protein stability index under setting [2] of 3.02 ± 1.5.

As to YKVKERLGTLKNPPKKKMKLMSG [LCOR], the protein stability index was 2.51 ± 0.41 (treatment: DMSO, c terminus: native) and 3.27 ± 0.068 (treatment: MLN4924 1 uM, 8 h, c terminus: native).

As to YLSLLRMYLSPPSIHCLGPIKLEL [VPS39], the protein stability index amounted to 3.26 ± 0.43 under setting [1] and 2.94 ± 0.16 under setting [2].

Consider YPVGRFPSLHVVKVLLDCGADPDS [FEM1A], for which the protein stability index worked out at 2.12 ± 0.17 under setting [1] and 2.38 ± 0.51 under setting [2].

For YQDDPDLRFLLDQVQLGLRCCGAA [TSPAN10], the protein stability index is, setting by setting: under setting [1], 2.56 ± 0.28; under setting [2], 2.65 ± 0.22.

Turning to YQSKGYNDDYYEESYFTTRTYGEP [EMD], the protein stability index reads like this: under setting [1], 2.78 ± 0.2; under setting [2], 3.22 ± 0.29.

For YRVLLGHTLILMFIWFVCSLVYYG [SLC22A15], the protein stability index stood at 2.32 ± 0.53 under setting [1] and 2.33 ± 0.57 under setting [2].

In the case of YTVLGDTLIDGGEHYWEVRYEPDS [FSD1], the protein stability index was 3.02 ± 0.2 under setting [1] and 2.97 ± 0.34 under setting [2].

In the case of YVFYLAVGNYRLKEYEKALKYVRG [FIS1], the protein stability index reads like this: under setting [1], 2.79 ± 0.36; under setting [2], 2.39 ± 0.58.

Consider YVGNLPPDIRTKDIEDVFYKYGAI [SRSF1], for which the protein stability index is, setting by setting: under setting [1], 2.28 ± 0.35; under setting [2], 2.43 ± 0.36.

As to YVPEKVKKAEKKLEENPYDLDAWS [CSTF3], the protein stability index is 3.06 ± 0.62 under setting [1] and 3.26 ± 0.87 under setting [2].

Sequence YYEMGIHCWDVAGAGIIVTEAGGV [IMPA1] gave a protein stability index under setting [1] of 2.21 ± 0.34 and a protein stability index under setting [2] of 2.03 ± 0.37.
